Source: patent US20080125365A1 (UNIVERSITY OF IOWA RESEARCH FOUNDATION, published 2008)

Legend:
[1] = target: recombinant soluble TLR4 extracellular domain (amino acids 24-634), FLAG-tagged (UniProt O00206); experiment: co-expression with TLR4ECD, harvested medium incubated with [3H]LOS:sCD14, gel filtration
[2] = target: T1, recombinant soluble TLR4 extracellular domain (amino acids 24-634), FLAG-tagged (UniProt O00206 24-634); experiment: [3H]LOS:MD-2 F126A incubated 30 min at 37 C with concentrated TLR4ECD medium, Mr ~190,000 complex by gel filtration, Scatchard analysis
T1 construct: range 24-634; Used as concentrated conditioned medium of HEK293T cells, not purified; also called TLR4ECD; FLAG-TLR4ECD; not shown: N-terminal FLAG tag from pFLAG-CMV
T1 sequence (O00206 24-634): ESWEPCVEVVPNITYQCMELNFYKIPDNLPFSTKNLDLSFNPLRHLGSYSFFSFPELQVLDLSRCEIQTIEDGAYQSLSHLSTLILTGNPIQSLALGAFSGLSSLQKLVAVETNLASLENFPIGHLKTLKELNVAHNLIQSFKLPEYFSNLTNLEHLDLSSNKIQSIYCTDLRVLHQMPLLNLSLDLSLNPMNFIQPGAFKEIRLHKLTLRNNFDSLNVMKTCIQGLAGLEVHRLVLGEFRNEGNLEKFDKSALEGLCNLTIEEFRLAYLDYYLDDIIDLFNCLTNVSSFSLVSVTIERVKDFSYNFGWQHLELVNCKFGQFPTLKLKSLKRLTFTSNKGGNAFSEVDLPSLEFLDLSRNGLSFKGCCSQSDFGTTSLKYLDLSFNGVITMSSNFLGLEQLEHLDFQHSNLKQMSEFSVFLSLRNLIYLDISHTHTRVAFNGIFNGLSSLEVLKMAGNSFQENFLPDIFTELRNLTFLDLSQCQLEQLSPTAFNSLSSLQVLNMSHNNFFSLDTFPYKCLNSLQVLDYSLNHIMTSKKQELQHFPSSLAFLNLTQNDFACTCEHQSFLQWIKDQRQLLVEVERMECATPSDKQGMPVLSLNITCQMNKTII

[3] = target: T2, TLR4 stably expressed on HEK293 cells (HEK/TLR4) (UniProt O00206 24-839, limits assumed); experiment: overnight incubation with HEK/TLR4 cells at 37 C, cell-associated radioactivity by liquid scintillation
T2 construct: whole, on cells; Cells from Eisai Research Institute (Yang et al., 2000) or Invivogen; also called HEK293/TLR4; cellular TLR4
T2 sequence (O00206 24-839 limits assumed): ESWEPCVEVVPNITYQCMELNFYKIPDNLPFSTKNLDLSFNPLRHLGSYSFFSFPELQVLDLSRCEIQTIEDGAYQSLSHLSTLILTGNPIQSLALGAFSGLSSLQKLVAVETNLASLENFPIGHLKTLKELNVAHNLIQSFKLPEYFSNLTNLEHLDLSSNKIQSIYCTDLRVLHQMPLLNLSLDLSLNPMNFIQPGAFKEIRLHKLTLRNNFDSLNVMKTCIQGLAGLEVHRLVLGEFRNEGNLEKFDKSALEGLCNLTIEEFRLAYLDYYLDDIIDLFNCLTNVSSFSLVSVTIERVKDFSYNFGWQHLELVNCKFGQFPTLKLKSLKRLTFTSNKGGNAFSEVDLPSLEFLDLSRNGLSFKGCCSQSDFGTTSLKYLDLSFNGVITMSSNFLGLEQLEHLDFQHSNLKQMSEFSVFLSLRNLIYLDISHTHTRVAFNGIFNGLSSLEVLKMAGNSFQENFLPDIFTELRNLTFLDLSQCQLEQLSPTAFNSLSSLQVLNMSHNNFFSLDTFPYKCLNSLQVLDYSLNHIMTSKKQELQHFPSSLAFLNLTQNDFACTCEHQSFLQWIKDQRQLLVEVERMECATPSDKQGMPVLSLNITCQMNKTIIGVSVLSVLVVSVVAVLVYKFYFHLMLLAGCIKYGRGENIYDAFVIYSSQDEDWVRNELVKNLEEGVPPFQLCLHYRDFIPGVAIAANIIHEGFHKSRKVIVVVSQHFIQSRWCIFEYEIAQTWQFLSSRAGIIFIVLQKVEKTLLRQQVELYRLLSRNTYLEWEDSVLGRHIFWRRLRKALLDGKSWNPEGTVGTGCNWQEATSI

[4] = target: T1, recombinant soluble TLR4 extracellular …; experiment: culture medium of HEK293T cells secreting TLR4ECD spiked with [3H]LOS:sCD14, Sephacryl S200 gel filtration
[5] = target: T1, recombinant soluble TLR4 extracellular …; experiment: saturation binding of [3H]LOS:MD-2 (25,000 cpm/pmol) to soluble TLR4ECD, complex resolved by gel filtration

Chain of recombinant soluble TLR4 extracellular domain (amino acids 24-634), FLAG-tagged (UniProt O00206) (O00206 24-634): as the sequence (O00206 24-634) above

human MD-2 Y131A.K132A double mutant (from UniProt Q9Y6Y9 19-160)
reduction of the yield of ([^3H]LOS:MD-2/TLR4ECD)2 against the single mutants [1]: 50%

B1: monomeric complex of wild-type LOS with human MD-2 F126A (ligand)
chain: QKQYWVCNSSDASISYTYCDKMQYPISINVNPCIELKRSKGLLHIFYIPRRDLKQLYFNLYITVNTMNLPKRKEVICRGSDDDYSFCRALKGETVNTTISFSFKGIKASKGKYKCVVEAISGSPEEMLFCLEFVILHQPNSN
notes: mature; Made in HEK293T cells (MD-2-FLAG-His) for analytical work and in High Five insect cells for preparative amounts; also called LOS:MD-2^F126A; [^3H]LOS:MD-2^F126A; not shown: C-terminal tag: pEF-BOS-MD-2^F126A-FLAG-His insert moved into pBAC11; which tag
Kd [2]: ~0.2 nM

B2: monomeric complex of LOS with soluble CD14 (other)
chain: TTPEPCELDDEDFRCVCNFSEPQPDWSEAFQCVSAVEVEIHAGGLNLEPFLKRVDADADPRQYADTVKALRVRRLTVGAAQVPAQLLVGALRVLAYSRLKELTLEDLKITGTMPPLPLEATGLALSSLRLRNVSWATGRSWLAELQQWLKPGLKVLSIAQAHSPAFSCEQVRAFPALTSLDLSDNPGLGERGLMAALCPHKFPAIQNLALRNTGMETPTGVCAALAAAGVQPHSLDLSHNSLRATVNPSAPRCMWSSALNSLNLSFAGLEQVPKGLPAKLRVLDLSCNRLNRAPQPDELPEVDNLTLDGNPFLVPGTALPHEGSMNSGVVPACARSTLSVGVSGTLVL
notes: Mr ~60,000; also called LOS:sCD14; [^3H]LOS:sCD14
binding result [3]: no binding (tested: 0.75 ng/ml ^3H-LOS) | binding result [4]: no binding (tested: 1 nM [^3H]LOS:sCD14)

B3: monomeric complex of wild-type (hexa-acylated) N. meningitidis LOS with wild-type human MD-2-His6 (ligand)
chain: QKQYWVCNSSDASISYTYCDKMQYPISINVNPCIELKRSKGLLHIFYIPRRDLKQLYFNLYITVNTMNLPKRKEVICRGSDDDYSFCRALKGETVNTTISFSFKGIKFSKGKYKCVVEAISGSPEEMLFCLEFVILHQPNSNHHHHHH
notes: mature; Mr ~25,000; Radiolabel (3H or 14C) is on the LOS; also called [^3H]LOS:MD-2; [^3H]LOS:MD-2-His6
Kd [5]: < 0.3 nM
